From US20200164014A1, “MESENCHYMAL STEM CELL ATTRACTING AGENT” (Shiseido Company, Ltd., priority 2017, published 2020) come the findings set out here.

The test system of this assay is young fibroblasts. The experiment in a line: Addition of aging factor proteins to young fibroblasts, quantitative RT-PCR. To be noted: protein added at 10 μg/ml vs 0 μg/ml, cultured 2 days. Format: cell-based. The procedure: Dermal fibroblasts collected from the back skin of an adult were cultured in Dulbecco's Modified Eagle Medium supplemented with 10% FBS. As normal fibroblasts (young fibroblasts), cells with a culture period of less than 1 month and a Pdl<30 were used. The same cells were cultured for 3 months or more and slowly proliferating cells (having a doubling time of less than 0.5/week and a Pdl>50) were used as the senescent fibroblasts. Normal fibroblasts were seeded in the upper layer of a six-well Transwell system (Falcon; Franklin Lakes, N.J.) filled with Dulbecco's Modified Eagle Medium supplemented with 10% FBS to a density of 1250 cells/cm^2. Sub-constructed senescent fibroblasts and normal fibroblasts were each seeded in two wells of the lower layer of the Transwell system. After combining the upper layer and the lower layer of the Transwell system for 2 days under a humidified atmosphere at 37° C. and 5% CO2, the cells in the upper layer and the cells in the lower layer were recovered using Qiazole (Qiagen).
From the recovered cell lysate, RNA was extracted using an RNeasy Protect Kit (Qiagen) according to the product description and […] into cDNA using Superscript VILO (Invitrogen) according to the product description. Real time PCR was performed on LightCycler (Roche) using […] as an internal standard and using primer pairs for the following genes. The cycle threshold (Ct value) calculated using Lightcycler software ver. 3.5 was normalized for each sample GAPDH mRNA.
Proteins of the candidate aging factors (IGFBP 7 and RSPO 4) (purchased from Serotec, R&D SYSTEMS) were added to a medium for culturing young fibroblasts at concentrations of 0 μg/ml and 10 μg/ml, cultured for 2 days, and the cells were collected using Qiazole (Qiagen). The recovered cell lysate was examined for the expression levels of MMP1 and collagen in the same manner as described above for quantitative RT-PCR. IGFBP7 and RSPO4 reduced the expression of collagen and increased the expression of MMP1.

B1: RSPO4: R-spondin family, member 4, purchased protein, candidate aging factor (protein, UniProt Q2I0M5 20-234, looked up)
R-spondin-4: LNRRKKQVGTGLGGNCTGCIICSEENGCSTCQQRLFLFIRREGIRQYGKCLHDCPPGYFGIRGQEVNRCKKCGATCESCFSQDFCIRCKRQFYLYKGKCLPTCPPGTLAHQNTRECQGECELGPWGGWSPCTHNGKTCGSAWGLESRVREAGRAGHEEAATCQVLSESRKCPIQRPCPGERSPGQKKGRKDRRPRKDRKLDRRLDVRPRQPGLQP
In the case of B1, the “expression of MMP1” value is given as “increased” and the expression of collagen result is listed as “reduced”.

B2: IGFBP7: insulin-like growth factor binding protein 7, purchased protein, candidate aging factor (protein, UniProt Q16270 27-282, looked up)
Insulin-like growth …: SSSDTCGPCEPASCPPLPPLGCLLGETRDACGCCPMCARGEGEPCGGGGAGRGYCAPGMECVKSRKRRKGKAGAAAGGPGVSGVCVCKSRYPVCGSDGTTYPSGCQLRAASQRAESRGEKAITQVSKGTCEQGPSIVTPPKDIWNVTGAQVYLSCEVIGIPTPVLIWNKVKRGHYGVQRTELLPGDRDNLAIQTRGGPEKHEVTGWVLVSPLSKEDAGEYECHASNSQGQASASAKITVVDALHEIPVKKGEGAEL
On to B2, for which the “expression of MMP1” value is “increased” and the expression of collagen result is listed as “reduced”.
